Assay results published in patent publication US20260356924 (published 2026).

What was measured:
[1] = molecular target: ePHF (human, UniProt P10636); assay: ELISA
[2] = molecular target: T1, iPHF (human, UniProt P10636); assay: BLI
[3] = molecular target: T2, Tau409-426 pS422 peptide (human); assay: SPR
T2 chain: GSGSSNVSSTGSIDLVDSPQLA

[4] = molecular target: T1, iPHF; assay: SPR
[5] = molecular target: T3, Tau409-426 pS416 pS422 peptide (human); assay: ELISA
T3 chain: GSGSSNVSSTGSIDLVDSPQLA

[6] = molecular target: T4, Tau409-426 6-phospho peptide (human, not fully specified); assay: ELISA
T4 chain: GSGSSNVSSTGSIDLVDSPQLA

[7] = molecular target: T2, Tau409-426 pS422 peptide; assay: ELISA
[8] = molecular target: T5, tau peptide 413-430 (human, phosphorylation not given)
T5 chain: STGSIDMVDSPQLATLAD

T1 sequence (P10636 2-758): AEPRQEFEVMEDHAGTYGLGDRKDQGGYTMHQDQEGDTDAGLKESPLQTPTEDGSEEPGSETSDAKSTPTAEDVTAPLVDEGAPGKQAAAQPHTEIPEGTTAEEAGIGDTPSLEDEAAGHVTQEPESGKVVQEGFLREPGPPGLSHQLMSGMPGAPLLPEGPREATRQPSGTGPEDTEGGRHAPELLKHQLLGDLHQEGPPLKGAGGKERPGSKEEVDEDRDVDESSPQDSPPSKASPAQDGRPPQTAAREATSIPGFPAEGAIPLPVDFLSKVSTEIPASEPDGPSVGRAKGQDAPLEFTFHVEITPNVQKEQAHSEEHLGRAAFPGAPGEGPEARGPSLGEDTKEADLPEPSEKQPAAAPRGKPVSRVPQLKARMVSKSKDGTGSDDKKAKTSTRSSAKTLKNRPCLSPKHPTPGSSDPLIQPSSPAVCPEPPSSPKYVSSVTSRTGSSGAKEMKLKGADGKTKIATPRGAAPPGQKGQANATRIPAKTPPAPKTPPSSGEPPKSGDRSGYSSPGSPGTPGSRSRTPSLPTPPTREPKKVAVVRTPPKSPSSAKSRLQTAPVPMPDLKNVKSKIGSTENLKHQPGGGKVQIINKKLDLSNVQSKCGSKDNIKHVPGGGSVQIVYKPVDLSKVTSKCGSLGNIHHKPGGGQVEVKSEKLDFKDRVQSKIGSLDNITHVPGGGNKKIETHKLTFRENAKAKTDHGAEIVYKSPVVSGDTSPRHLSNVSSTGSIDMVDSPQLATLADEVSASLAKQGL
ePHF, sequence (P10636 2-758): as above

B1: V0004 (antibody, V domains shown)
VH: QVQLQQPGAELVKPGASVKLSCKASDYTFTNYWMHWVKQRPGRGLEWIGRIDPNSGGTRYNEKFKNKATLTVDKPSSTAYMHLSSLTSEDSAVYYCAGDFDVWGTGTTVTVSS
VL: DIQMTQSPASLSASVGETVTITCRASGNIHNYLAWYQQRQGKSPQLLVYNAKTLPDGVPSRFSGSGSGTQYSLKINSLQPEDFGSYCCQHFWSTPLTFGAGTKLELK
modifications: enriched paired helical filament tau, hyperphosphorylated
- EC50 [1]: 0.083 nM

B2: V0004 (antibody, V domains shown)
VH: QVQLQQPGAELVKPGASVKLSCKASDYTFTNYWMHWVKQRPGRGLEWIGRIDPNSGGTRYNEKFKNKATLTVDKPSSTAYMHLSSLTSEDSAVYYCAGDFDVWGTGTTVTVSS
VL: DIQMTQSPASLSASVGETVTITCRASGNIHNYLAWYQQRQGKSPQLLVYNAKTLPDGVPSRFSGSGSGTQYSLKINSLQPEDFGSYCCQHFWSTPLTFGAGTKLELK
modifications: immunopurified paired helical filament tau, hyperphosphorylated
- Kd [2]: 20 nM

B3: Ab3 (antibody, V domains shown)
VH: EVQLVQSGAEVKKPGSSVKVSCKASGFTFTRYWMHWVKERPGHGLEWIGNINPNNGGTDFNEKFKNRVTMTVHKSITTAYMELSRLTSDDSAVYYCARGTGTGAMDYWGQGTLVSVSS
VL: DVVMTQSPLSLPVTLGQPASISCRSSQSLVHNNGITYLYWYQQRPGQSPRLLIYRVSNRFSGVPDRFSGSGSGTDFTLKISRVEAEDVGVYYCFQGTHVPRTFGQGTKLEIK
- Kd [3]: 0.0457 nM

B4: Ab10 (antibody, V domains shown)
VH: EVQLVQSGAEVKKPGSSVKVSCKASGFTFTRYWMHWVKERPGHGLEWIGNINPNNGGTDFNEKFKNRVTMTVHKSITTAYMELSRLTSDDSAVYYCARGTGTGAMDYWGQGTLVSVSS
VL: DIVMTQTPLSSPVTLGQPASISCRSSQSLVHNNGITYLYWYQQRPGQPPRLLIYRVSNRFSGVPDRFSGSGAGTDFTLKINRVEAEDVGVYFCFQGTHVPRTFGQGTKLEIK
- Kd [3]: 0.0436 nM

B5: Ab4 (antibody, V domains shown)
VH: QVQLVQSGAEVKKPGASVKVSCKASGFTFTRYWMHWVKERPGQGLEWMGNINPNNGGTDFNEKFKNRVTMTVHKSTSTVFIQLSSLRSEDTAVYYCARGTGTGAMDYWGQGTSVTVSS
VL: DIVMTQSPLSLSVTPGQPASISCRSSQSLVHNNGITYLYWYLQKPGQSPQLLIYRVSNRFSGVPDRFSGSGSGTDFTLKISRVEAEDVGVYYCFQGTHVPRTFGQGTKVEIK
- Kd [3]: 0.0361 nM

B6: Ab11 (antibody, V domains shown)
VH: QVQLVQSGAEVKKPGASVKVSCKASGFTFTRYWMHWVKERPGQGLEWMGNINPNNGGTDFNEKFKNRVTMTVHKSTSTVFIQLSSLRSEDTAVYYCARGTGTGAMDYWGQGTSVTVSS
VL: DVVMTQSPLSLPVTLGQPASISCRSSQSLVHNNGITYLYWYQQRPGQSPRLLIYRVSNRFSGVPDRFSGSGSGTDFTLKISRVEAEDVGVYYCFQGTHVPRTFGQGTKLEIK
- Kd [3]: 0.0403 nM

B7: V0009 (antibody, V domains shown)
VH: EVQLVESGGALVQPGGSLSLSCAASGFTFTDYYMSWVRQPPGKALEWLALIRNKAKGFTTEYSASVKGRFTISRDNSQSILLFQMNDLRADDSATYYCVRDINYWGQGTTLTVSS
VL: not shown
modifications: immunopurified paired helical filament tau, hyperphosphorylated
- Kd [2]: 0.2 nM
- Kd [4]: 0.296 nM

B8: V0009 (antibody, V domains shown)
VH: EVQLVESGGALVQPGGSLSLSCAASGFTFTDYYMSWVRQPPGKALEWLALIRNKAKGFTTEYSASVKGRFTISRDNSQSILLFQMNDLRADDSATYYCVRDINYWGQGTTLTVSS
VL: not shown
modifications: enriched paired helical filament tau, hyperphosphorylated
- EC50 [1]: 0.038 nM

B9: V0024 (antibody, V domains shown)
VH: QVQLQQPGTELVKPGASVKLSCKASGYTFTRFWMHWVKQRPGQGLEWIGNINPNNGGTDNNERFKSKATLTVDRSSSTAYMQLSSLTSEDSAVYYCARGTGTGAMDYWGQGTSVTVSS
VL: DVVMTQTPLSLPVSLGDQASISCRSSQSLVHSNGNTHLYWYLQKPGQSPKLLIYRVSSRFSGVPDRFSGSGSGTDFTLKISRVEAEDLGVYFCFQGTHVPRTFGGGTKLEIK
- EC50 [5]: 0.22 nM
- EC50 [6]: 0.222 nM
- EC50 [7]: 0.233 nM
- Kd [8]: 0.225 nM

B10: V0023 (antibody, V domains shown)
VH: QVQLQQPGTELVKPGASVKLSCKASGYTFTIFWMHWVKQRPGHGLEWIGKINPNNGGGDYNEKFKSKATLTVDKSSTTAYLQLSSLTSEDSAVYYCARGTGTGAMDYWGQGTSVTVSS
VL: DVVMTQTPLSLPVSLGDHASISCRSSQSLVHSNGITHLYWYLQRPGQTPKLLIYRVSNRFSGVPDRFSGSGSGTDFTLKISSVEAEDLGVYFCFQGTHVPRTFGGGTKLEIE
modifications: enriched paired helical filament tau, hyperphosphorylated
- EC50 [1]: 0.11 nM

B11: V0023 (antibody, V domains shown)
VH: QVQLQQPGTELVKPGASVKLSCKASGYTFTIFWMHWVKQRPGHGLEWIGKINPNNGGGDYNEKFKSKATLTVDKSSTTAYLQLSSLTSEDSAVYYCARGTGTGAMDYWGQGTSVTVSS
VL: DVVMTQTPLSLPVSLGDHASISCRSSQSLVHSNGITHLYWYLQRPGQTPKLLIYRVSNRFSGVPDRFSGSGSGTDFTLKISSVEAEDLGVYFCFQGTHVPRTFGGGTKLEIE
- EC50 [5]: 0.252 nM
- EC50 [6]: 0.217 nM
- EC50 [7]: 0.234 nM
- Kd [8]: 0.207 nM

B12: V0022 (antibody, V domains shown)
VH: QVQLQQPGTELVKPGSSVNLSCKASGFTFTRYWMHWVKERPGHGLEWIGNINPNNGGTDFNEKFKNKATLTVHKSSTTVFIQLSSLTSEDSAVYYCARGTGTGAMDYWGQGTSVTVSS
VL: DVVMTQTPLSLPVSLGDQASISCRSSQSLVHNNGITYLYWYLQKPGQSPKLLIYRVSNRFSGVPDRFGGSGSGTDFTLKISRVEAEDLGVYFCFQGTHVPRTFGGGTKLEIK
modifications: enriched paired helical filament tau, hyperphosphorylated
- EC50 [1]: 0.07 nM

B13: V0022 (antibody, V domains shown)
VH: QVQLQQPGTELVKPGSSVNLSCKASGFTFTRYWMHWVKERPGHGLEWIGNINPNNGGTDFNEKFKNKATLTVHKSSTTVFIQLSSLTSEDSAVYYCARGTGTGAMDYWGQGTSVTVSS
VL: DVVMTQTPLSLPVSLGDQASISCRSSQSLVHNNGITYLYWYLQKPGQSPKLLIYRVSNRFSGVPDRFGGSGSGTDFTLKISRVEAEDLGVYFCFQGTHVPRTFGGGTKLEIK
modifications: immunopurified paired helical filament tau, hyperphosphorylated
- Kd [2]: 0.3 nM
- Kd [4]: 0.0439 nM

B14: V0024 (antibody, V domains shown)
VH: QVQLQQPGTELVKPGASVKLSCKASGYTFTRFWMHWVKQRPGQGLEWIGNINPNNGGTDNNERFKSKATLTVDRSSSTAYMQLSSLTSEDSAVYYCARGTGTGAMDYWGQGTSVTVSS
VL: DVVMTQTPLSLPVSLGDQASISCRSSQSLVHSNGNTHLYWYLQKPGQSPKLLIYRVSSRFSGVPDRFSGSGSGTDFTLKISRVEAEDLGVYFCFQGTHVPRTFGGGTKLEIK
modifications: enriched paired helical filament tau, hyperphosphorylated
- EC50 [1]: 0.125 nM

B15: V0024 (antibody, V domains shown)
VH: QVQLQQPGTELVKPGASVKLSCKASGYTFTRFWMHWVKQRPGQGLEWIGNINPNNGGTDNNERFKSKATLTVDRSSSTAYMQLSSLTSEDSAVYYCARGTGTGAMDYWGQGTSVTVSS
VL: DVVMTQTPLSLPVSLGDQASISCRSSQSLVHSNGNTHLYWYLQKPGQSPKLLIYRVSSRFSGVPDRFSGSGSGTDFTLKISRVEAEDLGVYFCFQGTHVPRTFGGGTKLEIK
modifications: immunopurified paired helical filament tau, hyperphosphorylated
- Kd [2]: 2.8 nM
- Kd [4]: 0.124 nM

B16: V0023 (antibody, V domains shown)
VH: QVQLQQPGTELVKPGASVKLSCKASGYTFTIFWMHWVKQRPGHGLEWIGKINPNNGGGDYNEKFKSKATLTVDKSSTTAYLQLSSLTSEDSAVYYCARGTGTGAMDYWGQGTSVTVSS
VL: DVVMTQTPLSLPVSLGDHASISCRSSQSLVHSNGITHLYWYLQRPGQTPKLLIYRVSNRFSGVPDRFSGSGSGTDFTLKISSVEAEDLGVYFCFQGTHVPRTFGGGTKLEIE
modifications: immunopurified paired helical filament tau, hyperphosphorylated
- Kd [2]: 4 nM
- Kd [4]: 0.0578 nM
